Where a chain is given by its changes, count along the chain named. In names and notes the source's numbering stands.
Legend:
Test in all cases: SPR (BIACORE), antibody captured, FcγR analyte
[1] = target: T1, cynomolgus monkey FcγRIIa1 extracellular domain, C-terminal His-tag (cynomolgus monkey)
T1 construct: also called cyno FcγRIIa1; cynoFcgRIIa1; not shown: His-tag added to C-terminus
T1 chain: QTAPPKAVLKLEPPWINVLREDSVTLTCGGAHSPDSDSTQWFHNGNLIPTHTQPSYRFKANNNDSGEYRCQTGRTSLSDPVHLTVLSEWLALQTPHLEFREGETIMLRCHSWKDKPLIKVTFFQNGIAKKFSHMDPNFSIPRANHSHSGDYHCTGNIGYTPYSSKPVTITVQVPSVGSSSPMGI
Experimental: (§1) The kinetic analysis of interactions between these antibodies and FcγR was carried out using BIACORE® T200 or BIACORE® 4000 (GE Healthcare). HBS-EP+ (GE Healthcare) was used as the running buffer, and the measurement temperature was set to 25° C. A chip produced by immobilizing Protein A. Protein A/G or mouse anti-human IgG kappa light chain (BD Biosciences) onto a Series S Sensor Chip CM4 or CM5 (GE Healthcare) by the amine-coupling method was used. […] After the measurement, the antibody captured on the chip was washed off by allowing reaction with 10 mM glycine-HCl, pH1.5 and 25 mM NaOH so that the chip was regenerated and used repeatedly. The sensorgrams obtained as measurement results were analyzed by the 1:1 Langmuir binding model using the BIACORE® Evaluation Software to calculate the binding rate constant ka (L/mol/s) and dissociation rate constant kd (l/s), and the dissociation constant KD (mol/L) was calculated from these values. […] Regarding such interactions, KD values were calculated using the following 1:1 binding model described in BIACORE® T100 Software Handbook BR1006-48 Edition AE.
(§2) The behavior of interacting molecules according to the 1:1 binding model on BIACORE® can be described by Equation 1: Req=C·R max/(KD+C)+RI, wherein, Req is a plot of steady-state binding levels to analyte concentration. C is concentration, RI is bulk refractive index contribution in the sample, and Rmax is analyte binding capacity of the surface. When this equation is rearranged, KD can be expressed as Equation 2: KD=C·Rmax/(Req−RI)−C. KD can be calculated by substituting the values of Rmax, RI, and C into Equation 1 or Equation 2. From the current measurement conditions, RI=0, C=2 μmol/L can be used.

[2] = target: T2, cynomolgus monkey FcγRIIa2 extracellular domain, C-terminal His-tag (cynomolgus monkey)
T2 construct: also called cyno FcγRIIa2; cynoFcgRIIa2; not shown: His-tag added to C-terminus
T2 chain: T1 chain with P95T, T121A, I127K, A128S, K130N, D135N, R142Q
Experimental: as §1, §2

[3] = target: T3, cynomolgus monkey FcγRIIa3 extracellular domain, C-terminal His-tag (cynomolgus monkey)
T3 construct: also called cyno FcγRIIa3; cynoFcgRIIa3; not shown: His-tag added to C-terminus
T3 chain: T1 chain with P95T, T121A, A128S, H133P, D135N
Experimental: as §1, §2

[4] = target: T4, cynomolgus monkey FcγRIIb extracellular domain, C-terminal His-tag (cynomolgus monkey)
T4 construct: also called cyno FcγRIIb; cynoFcγRIIb; not shown: His-tag added to C-terminus
T4 chain: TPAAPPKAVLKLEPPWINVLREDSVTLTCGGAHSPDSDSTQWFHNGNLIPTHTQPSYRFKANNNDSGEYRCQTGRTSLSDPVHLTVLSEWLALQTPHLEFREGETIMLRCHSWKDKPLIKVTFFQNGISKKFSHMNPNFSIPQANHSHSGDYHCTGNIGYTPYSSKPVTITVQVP
Experimental: as §1, §2

[5] = target: T5, cynomolgus monkey FcγRIIIaS extracellular domain, C-terminal His-tag (cynomolgus monkey, UniProt A3RFZ7 21-206 (rhesus entry))
T5 construct: also called cyno FcγRIIIaS; cynoFcγRIIIaS; not shown: His-tag added to C-terminus
Experimental: as §1, §2

[6] = target: T6, human FcγRIIaR extracellular domain, C-terminal His-tag (human, UniProt P12318 34-217)
T6 construct: also called human FcγRIIa (type R); FcgRIIaR; not shown: His-tag added to C-terminus
T6 chain: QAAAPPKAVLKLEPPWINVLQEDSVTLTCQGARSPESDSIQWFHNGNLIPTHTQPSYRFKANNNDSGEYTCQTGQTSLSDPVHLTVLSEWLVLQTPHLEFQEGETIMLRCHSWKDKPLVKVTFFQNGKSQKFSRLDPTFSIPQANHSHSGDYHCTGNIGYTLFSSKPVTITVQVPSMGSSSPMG
Experimental: as §1, §2

[7] = target: T7, human FcγRIIb extracellular domain, C-terminal His-tag (human, UniProt P31994 43-217)
T7 construct: also called humanFcgRIIb; not shown: His-tag added to C-terminus
T7 sequence: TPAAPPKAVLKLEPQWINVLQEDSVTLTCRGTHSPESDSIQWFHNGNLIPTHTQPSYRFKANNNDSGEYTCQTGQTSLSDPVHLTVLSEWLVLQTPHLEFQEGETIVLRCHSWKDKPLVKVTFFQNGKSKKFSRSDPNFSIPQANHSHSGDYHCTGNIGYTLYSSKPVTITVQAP
Experimental: as §1, §2

[8] = target: T8, human FcγRIIIaV extracellular domain, C-terminal His-tag (human, UniProt P08637 17-208)
T8 construct: also called FcgRIIIaV; not shown: His-tag added to C-terminus
Experimental: as §1, §2

T8 sequence (P08637 17-208 F176V): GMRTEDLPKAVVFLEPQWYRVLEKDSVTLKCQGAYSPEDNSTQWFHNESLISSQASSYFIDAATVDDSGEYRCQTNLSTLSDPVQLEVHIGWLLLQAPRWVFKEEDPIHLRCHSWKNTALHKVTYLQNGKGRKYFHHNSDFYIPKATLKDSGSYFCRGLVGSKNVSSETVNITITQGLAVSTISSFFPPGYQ
T5 sequence (A3RFZ7 21-206): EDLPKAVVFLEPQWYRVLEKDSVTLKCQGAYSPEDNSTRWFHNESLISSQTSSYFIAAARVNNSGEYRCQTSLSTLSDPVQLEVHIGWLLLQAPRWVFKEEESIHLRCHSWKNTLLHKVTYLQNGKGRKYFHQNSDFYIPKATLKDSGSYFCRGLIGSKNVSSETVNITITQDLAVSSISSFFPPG

Kd [1]: 1300 nM
Kd [2]: 1300 nM
Kd [3]: 3800 nM
Kd [4]: 380 nM
Kd [5]: 3900 nM
Kd [6]: 1100 nM
Kd [7]: 590 nM
Kd [8]: 13000 nM
B1: M103205H795-PK2 / M103202L889-SK1 (antibody, human IgG1, kappa)
heavy: QVTLKESGPVLVKPTETLTLTCTVSGIDLSHDDISWVRQAPGKGLEWVGIISYAGSTYYASWAKGRLTISKDTSKNQVVLTMTNMDPVDTATYYCARGVPAYSHGGDLWGQGTLVTVSSASTKGPSVFPLAPSSKSTSGGTAALGCLVKDYFPEPVTVSWNSGALTSGVHTFPAVLQSSGLYSLSSVVTVPSSSLGTQTYICNVNHKPSNTKVDKKVEPKSCDKTHTCPPCPAPELLNGPSVFLFPPKPKDTLMISRTPEVTCVVVDVSEEDPEVKFNWYVDGVEVHNAKTKPREEQYNSTYRVVSVLTVLHQDWLNGKEYKCKVSNKALPKPIEKTISKAKGQPREPQVYTLPPSREEMTKNQVSLTCLVKGFYPSDIAVEWESNGQPENNYKTTPMVLDRDGSFFLYSKLTVKKSRWQQGNVFSCSVMHEALHNHYTQKSLSLSP
light: DIVMTQSPATLSLSPGERATLSCTSSQSVYHANWLSWFQQKPGQPPKLLIYWASTLAYGVPSRFSGSGSGTDFTLTISSLQPEDAATYYCAGGYGGGRYAFGQGTKVEIKRTVAAPSVFIFPPSDEQLKSGTASVVCLLNNFYPREAKVQWKVDNALQSGNSQESVTEQDSKDSTYSLSSTLTLSKADYEKHKVYACEVTHQGLSSPVTKSFNRGEC
notes: CH with G236N/H268E/A330K/P396M/S400R/D413K against SG1 (EU numbering); also called MS1032LO06-PK2; MS103205H795-PK2

Reference: patent US20200317768A1 (published 2020)
